The values below come from article PMC8596989.

For assay [1], the target named is Encapsulin from Mycobacterium smegmatis with Streptavidin-tag (^StrepEncSM) (Mycobacterium smegmatis) (UniProt A0R4H0). In words: FRET or BRET. A general note: In BRET a luciferase serves as donor, and the signal depends on an acceptor being close.
Assay [2] shares this target. Put plainly: in-gel fluorescence against a standard curve.

Take “HaloTag construct carrying an encapsulin localization sequence (HaloTag-ELS)”: in assay [1], the fluorophore binding sites per vesicle (fluorophore binding sites per vesicle) is above 3. Moreover, the labeled cargo proteins per capsid (labeled cargo proteins per capsid) in assay [2] turned out to be 6.6.
